Experimental data taken from patent US20220298216A1 (SYRACUSE UNIVERSITY, published 2022).
Non-standard residues stand in square brackets, D forms with d. No end group written: not given here. NMeF = CN[C@@H](Cc1ccccc1)C(=O)O; NMeL = CN[C@@H](CC(C)C)C(=O)O; NMeS = CN[C@@H](CO)C(=O)O; Dap = NC[C@H](N)C(=O)O; Sar = CNCC(=O)O

T1: human ghrelin O-acyltransferase (hGOAT) (human, UniProt Q96T53 1-435, limits assumed)
T1 sequence (looked up): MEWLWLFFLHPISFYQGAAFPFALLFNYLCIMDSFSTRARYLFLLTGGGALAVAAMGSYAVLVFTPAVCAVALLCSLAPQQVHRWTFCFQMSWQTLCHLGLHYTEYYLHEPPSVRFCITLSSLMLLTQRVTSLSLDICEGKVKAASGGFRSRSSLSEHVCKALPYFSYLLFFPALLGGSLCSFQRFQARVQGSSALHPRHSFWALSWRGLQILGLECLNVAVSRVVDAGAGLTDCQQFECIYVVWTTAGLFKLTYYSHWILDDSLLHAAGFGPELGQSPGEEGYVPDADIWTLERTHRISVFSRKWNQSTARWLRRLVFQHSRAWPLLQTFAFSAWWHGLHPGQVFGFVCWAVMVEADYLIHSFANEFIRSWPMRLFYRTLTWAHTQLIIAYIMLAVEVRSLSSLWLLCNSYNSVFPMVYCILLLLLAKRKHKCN


What was measured:
GOAT (human) = GOAT (human) (UniProt Q96T53); experiment: GOAT inhibition assay
[1] = target: ghrelin receptor (GHS-R1a) (Homo sapiens (Human)) (UniProt Q92847); experiment: competition binding assay on the ghrelin receptor, IC50
ghrelin receptor (GHS-R1a) (Homo sapiens (Human)), sequence (Q92847 whole entry, form in doubt): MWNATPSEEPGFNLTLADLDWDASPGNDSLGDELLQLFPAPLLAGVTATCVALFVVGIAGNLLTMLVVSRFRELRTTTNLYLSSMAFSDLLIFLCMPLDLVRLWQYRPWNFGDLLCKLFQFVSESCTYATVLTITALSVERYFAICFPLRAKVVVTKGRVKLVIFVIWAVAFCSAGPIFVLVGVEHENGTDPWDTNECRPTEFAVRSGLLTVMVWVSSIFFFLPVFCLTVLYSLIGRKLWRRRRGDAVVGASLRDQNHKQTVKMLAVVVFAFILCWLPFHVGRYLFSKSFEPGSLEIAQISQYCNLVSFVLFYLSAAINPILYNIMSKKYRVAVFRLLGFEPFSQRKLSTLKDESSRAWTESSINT

[2] = target: T1, human ghrelin O-acyltransferase (hGOAT); experiment: cell-based or functional assay

Row | Molecule | IC50 (GOAT (human)) | IC50 (µM), inhibitor potency against hGOAT [2] | other results
1 | SDapFL | > 100000 nM |  | 
2 | GS[Dap]FLS | 74 nM |  | 
3 | ghrelin-derived peptide with a sarcosine substitution at the G1 position |  |  | fold loss in binding affinity (IC50) against the unsubstituted peptide [1]: > 25 fold
4 | GSDap | > 100000 nM |  | 
5 | Ac-SDapFL | > 100000 nM |  | 
6 | SarSDapN·MeF (peptide) |  | 1.5 µM | 
7 | GSDapF | 1200 nM |  | 
8 | GS[Dap][NMeF]L [GSDapN·MeFL] |  | 0.097 µM | 
9 | GS[Dap]F[NMeL] [GSDapFN·MeL] |  | 0.062 µM | 
10 | GS[Dap]FL [GSDapFL] |  | 0.14 µM | 
11 | [Sar]S[Dap]FL [SarSDapFL] |  | 0.088 µM | 
12 | [Sar]S[Dap][NMeF][NMeL] [SarSDapN·MeFN·MeL] |  | 6 µM | 
13 | G[NMeS][Dap]FL [GN·MeSDapFL] |  | > 100 µM | 
